Test results taken from article PMC7164391 (Science (New York, N.Y.), 2020).

Target: receptor-binding domain (RBD) of the SARS-CoV spike (S) protein (SARS-CoV, isolate of GenBank ABF65836.1 …, UniProt Q19QX0)
Settings: both partners purified

B1: CR3022 Fab (Fab, V domains shown)
VH: QMQLVQSGTEVKKPGESLKISCKGSGYGFITYWIGWVRQMPGKGLEWMGIIYPGDSETRYSPSFQGQVTISADKSINTAYLQWSSLKASDTAIYYCAGGSGISTPMDVWGQGTTVTVSS
VL: not shown
- Kd: 1 ± 0.1 nM
